According to the RNAGym collection of RNA variant scans (doi:10.1021/acssynbio.7b00057):

B1: Pistol ribozyme (parent)
chain: GGGUCGUUGUUCCAUAAUCGCGUGGAUAUGGCACGCAAGUUUCUACCGGGCACCGUAAAUGUCCGACUGGAGCCGUUCGGGCGGCUAUAAACAGACCUCAGGCCCGAAGCGUGGCGGCACCUGCCGCCGGUGGUAAAAAAGAUCGGAAGAGCACACGUCU

Variants of: B1
Assay: aptazyme ON/OFF ratio, guanine; higher = stronger switching; co-transcriptional cleavage with and without guanine

Point of comparison: U8G G9C U10C U11G C12G C13A, “aptazyme ON/OFF ratio” value 1.08. Against it:
- U8G G9C U10C U11G C12G C13U — the same, 1.08
- U8G G9C U10C U11G C12G C13G — higher, 1.11
- U8G G9C U10C C12G C13A — higher, 1.16
- U8G G9C U10C C12G C13U — the same, 1.08
- U8G G9C U10C C12G C13G — lower, 1.06
- U8G G9C U10G U11A C12A — higher, 1.17
- U8G G9C U10G U11A C12G — higher, 1.15
- U8G G9C U10G U11A C12U — lower, 1.07
- U8G G9C U10C U11C C13A — lower, 1.06
- U8G G9C U10C U11C C13U — lower, 1.03
- U8G G9C U10C U11C C13G — lower, 1.01
- U8G G9C U10A U11A C12G — higher, 1.16
- U8G G9C U10A U11A C12A — higher, 1.18
- U8G G9C U10A U11A C12U — higher, 1.18
- U8G G9C U10C U11A — lower, 1.07
- U8G G9C U10C U11G — higher, 1.27
- U8G G9C U10C U11C — lower, 1.04
- U8G G9C U10A U11G C12A C13U — higher, 1.16
- U8G G9C U10A U11G C12A C13G — higher, 1.14
- U8G G9C U10A U11G C12A C13A — lower, 1.07
- U8G G9C U10G U11C C12G C13A — the same, 1.08
- U8G G9C U10G U11C C12G C13G — lower, 1.05
- U8G G9C U10G U11C C12G C13U — the same, 1.08
- U8G G9C U10G U11A C12U C13G — higher, 1.15
- U8G G9C U10G U11A C12U C13A — higher, 1.16
- U8G G9C U10G U11A C12U C13U — higher, 1.12
- U8G G9C U10A U11G C12G C13U — higher, 1.22
- U8G G9C U10A U11G C12G C13G — higher, 1.31
- U8G G9C U10A U11G C12G C13A — higher, 1.35
- U8G G9C U10C U11G C13U — higher, 1.16
- U8G G9C U10C U11G C13G — higher, 1.1
- U8G G9C U10C U11G C13A — higher, 1.17
- U8G G9C U10A U11C C12A C13G — lower, 1.07
- U8G G9C U10A U11C C12A C13U — lower, 1.07
- U8G G9C U10A U11C C12A C13A — lower, 1.06
- U8G G9C U10G C12U C13A — the same, 1.08
- U8G G9C U10G C12U C13G — higher, 1.11
- U8G G9C U10G C12U C13U — higher, 1.26
- U8G G9C U10C U11A C12G C13G — higher, 1.1
- U8G G9C U10C U11A C12G C13U — higher, 1.11
- U8G G9C U10C U11A C12G C13A — lower, 1.02
- U8G G9C U10A U11G C12A — lower, 1.07
- U8G G9C U10A U11G C12U — higher, 1.2
- U8G G9C U10A U11G C12G — higher, 1.19
- U8G G9C U10G U11C C13A — lower, 1.05
- U8G G9C U10G U11C C13U — lower, 1.04
- U8G G9C U10G U11C C13G — lower, 1.02
- U8G G9C U10G C12U — lower, 1.06
- U8G G9C U10G C12A — higher, 1.19
- U8G G9C U10G C12G — higher, 1.19
- U8G G9C U10G C12G C13A — the same, 1.08
- U8G G9C U10G C12G C13G — the same, 1.08
- U8G G9C U10G C12G C13U — higher, 1.17
- U8G G9C U10A U11G C12U C13G — higher, 1.1
- U8G G9C U10A U11G C12U C13U — higher, 1.17
- U8G G9C U10A U11G C12U C13A — lower, 1.06
- U8G G9C U10C C12U — lower, 1.03
- U8G G9C U10C C12A — lower, 1.05
- U8G G9C U10C C12G — the same, 1.08
- U8G G9C U10C U11C C12U — lower, 1.06
- U8G G9C U10C U11C C12G — lower, 1.06
- U8G G9C U10C U11C C12A — lower, 1.05
- U8G G9C U10C U11A C13A — higher, 1.09
- U8G G9C U10C U11A C13U — higher, 1.1
- U8G G9C U10C U11A C13G — lower, 1.05
- U8G G9C U10A U11C C12G C13A — lower, 1.05
- U8G G9C U10A U11C C12G C13U — higher, 1.14
- U8G G9C U10A U11C C12G C13G — lower, 1.05
- U8G G9C U10C U11G C12A — lower, 1.07
- U8G G9C U10C U11G C12U — higher, 1.25
- U8G G9C U10C U11G C12G — higher, 1.1
- U8G G9C U10G U11A C12A C13A — higher, 1.12
- U8G G9C U10G U11A C12A C13G — higher, 1.11
- U8G G9C U10G U11A C12A C13U — higher, 1.11
- U8G G9C U10G — higher, 1.19
- U8G G9C U10C — the same, 1.08
- U8G G9C U10C U11C C12U C13A — lower, 1.04
- U8G G9C U10C U11C C12U C13G — lower, 1.04
- U8G G9C U10C U11C C12U C13U — lower, 1.04
- U8G G9C U10A U11A C13G — lower, 1.04
- U8G G9C U10A U11A C13U — higher, 1.15
- U8G G9C U10A U11A C13A — higher, 1.11
- U8G G9C U10G U11A — lower, 1.07
- U8G G9C U10G U11G — higher, 1.2
- U8G G9C U10G U11C — lower, 1.03
- U8G G9C U10G U11C C12A C13U — lower, 1.03
- U8G G9C U10G U11C C12A C13G — lower, 1.04
- U8G G9C U10G U11C C12A C13A — lower, 1.04
- U8G G9C U10C U11C C12G C13A — higher, 1.11
- U8G G9C U10C U11C C12G C13G — higher, 1.09
- U8G G9C U10C U11C C12G C13U — the same, 1.08
- U8G G9C U10C U11C C12A C13U — lower, 1.07
- U8G G9C U10C U11C C12A C13G — lower, 1.06
- U8G G9C U10C U11C C12A C13A — lower, 1.02
- U8G G9C U10A C13U — higher, 1.09
- U8G G9C U10A C13G — lower, 1.06
- U8G G9C U10A U11G — higher, 1.18
- U8G G9C U10A U11A — higher, 1.18
- U8G G9C U10A U11C — lower, 1.03
- U8G G9C U10A U11G C13U — lower, 1.05
- U8G G9C U10A U11G C13G — lower, 1.04
- U8G G9C U10A U11G C13A — the same, 1.08
- U8G G9C U10A U11C C12U C13A — higher, 1.09
- U8G G9C U10A U11C C12U C13G — lower, 1.06
- U8G G9C U10A U11C C12U C13U — lower, 1.02
- U8G G9C U10C U11G C12U C13U — lower, 1.07
- U8G G9C U10C U11G C12U C13G — higher, 1.1
- U8G G9C U10C U11G C12U C13A — lower, 1.04
- U8G G9C U10C C12U C13A — lower, 1.06
- U8G G9C U10C C12U C13G — lower, 1.05
- U8G G9C U10C C12U C13U — lower, 1.04
- U8G G9C U10C U11A C12U C13G — lower, 1.02
- U8G G9C U10C U11A C12U C13A — lower, 1.04
- U8G G9C U10C U11A C12U C13U — lower, 1.04
- U8G G9C U10G U11G C12A — higher, 1.21
- U8G G9C U10G C12A C13A — higher, 1.11
- U8G G9C U10G C12A C13U — higher, 1.15
- U8G G9C U10G C12A C13G — higher, 1.09
- U8G G9C U10G U11A C12G C13G — higher, 1.29
- U8G G9C U10G U11A C12G C13A — higher, 1.14
- U8G G9C U10G U11A C12G C13U — higher, 1.2
- U8G G9C U10G U11A C13A — lower, 1.05
- U8G G9C U10G U11A C13G — lower, 1.03
- U8G G9C U10G U11A C13U — lower, 1.06
- U8G G9C U10C U11A C12U — lower, 1.06
- U8G G9C U10C U11A C12G — lower, 1.06
- U8G G9C U10C U11A C12A — lower, 1.05
- U8G G9C U10C C13U — lower, 1.07
- U8G G9C U10C C13G — lower, 1.04
- U8G G9C U10C C13A — lower, 1.03
- U8G G9C U10G C13A — higher, 1.27
- U8G G9C U10G C13G — higher, 1.12
- U8G G9C U10G C13U — higher, 1.24
- U8G G9C U10G U11C C12U C13G — lower, 1.02
- U8G G9C U10G U11C C12U C13U — lower, 1.03
- U8G G9C U10G U11C C12U C13A — lower, 1.03
- U8G G9C U10A U11A C12A C13G — higher, 1.09
- U8G G9C U10A U11A C12A C13U — higher, 1.18
- U8G G9C U10A U11A C12A C13A — higher, 1.12
- U8G G9C U10C U11A C12A C13G — lower, 1.07
- U8G G9C U10C U11A C12A C13A — lower, 1.06
- U8G G9C U10C U11A C12A C13U — lower, 1.05
- U8G G9C U10A U11C C13U — lower, 1.03
- U8G G9C U10A U11C C13G — lower, 1.04
- U8G G9C U10A U11C C13A — lower, 1.04
- U8G G9C U10G U11G C12A C13U — higher, 1.3
- U8G G9C U10G U11G C12A C13A — higher, 1.18
- U8G G9C U10G U11G C12A C13G — higher, 1.15
- U8G G9C U10G U11C C12A — lower, 1.05
- U8G G9C U10G U11C C12U — lower, 1.03
- U8G G9C U10G U11C C12G — lower, 1.03
- U8G G9C U10C U11G C12A C13U — lower, 1.04
- U8G G9C U10C U11G C12A C13A — the same, 1.08
- U8G G9C U10C U11G C12A C13G — lower, 1.05
- U8G G9C U10A U11C C12G — higher, 1.14
- U8G G9C U10A U11C C12U — lower, 1.04
- U8G G9C U10A U11C C12A — higher, 1.12
- U8G G9C U10A U11A C12G C13G — higher, 1.18
- U8G G9C U10A U11A C12G C13A — higher, 1.11
- U8G G9C U10A U11A C12G C13U — higher, 1.18
- U8G G9C U10C C12A C13A — lower, 1.05
- U8G G9C U10C C12A C13U — lower, 1.05
- U8G G9C U10C C12A C13G — lower, 1.06
- U8G G9C U10A U11A C12U C13G — higher, 1.1
- U8G G9C U10A U11A C12U C13A — higher, 1.14
- U8G G9C U10A U11A C12U C13U — higher, 1.19
